Results reported in patent publication US20180216091A1.

These binders were tested against glucose dehydrogenase harboring a LPKTA motive (assay: not given).

Binder | activity with different LPKTA concentrations
N-terminally truncated Streptococcus pyogenes sortase A (protein) MRGSHHHHHHGSVLQAQMAAQQLPVIGGIAIPELGINLPIFKGLGNTELIYGAGTMKEEQVMGGENNYSLASHHIFGITGSSQMLFSPLERAQNGMSIYLTDKEKIYEYIIKDVFTVAPERVDVIDDTAGLKEVTLVTCTDIEATERIIVKGELKTEYDFDKAPADVLKAFNHSYNQVST | a substrate inhibition effect for St.py. SrtA at concentrations higher than 300 µM
Listeria monocytogenes Sortase A variant C (enzyme) ANYDKDAVVGSIAVPSVDVNLLVFKGTNTANLLAGATTMRSDQVMGKGNYPLAGHHMRDESMLFGPIMKVKKGDKIYLTDLENLYEYTVTETKTIDETEVSVIDDTKDARITLITCDKPTETTKRFVAVGELEKTEKLTKELENKYFPSKMRGSHHHHHHGS | The graphs show the higher activity of Listeria monocytogenes Sortase A variant C

The binders below were run against glucose dehydrogenase containing the sortase-motif LPXTG (assay: cell-based or functional assay).

Binder | maximum dE/min [dE/min]
Listeria monocytogenes Sortase A variant E (enzyme) GSIAVPSVDVNLLVFKGTNTANLLAGATTMRSDQVMGKGNYPLAGHHMRDESMLFGPIMKVKKGDKIYLTDLENLYEYTVTETKTIDETEVSVIDDTKDARITLITCDKPTETTKRFVAVGELEKTEKLTKELENKYFPSKMRGSHHHHHHGS | 0.019
Listeria monocytogenes Sortase A variant A (enzyme) EKDATFDFESVQLPSMTSVIKGAANYDKDAVVGSIAVPSVDVNLLVFKGTNTANLLAGATTMRSDQVMGKGNYPLAGHHMRDESMLFGPIMKVKKGDKIYLTDLENLYEYTVTETKTIDETEVSVIDDTKDARITLITCDKPTETTKRFVAVGELEKTEKLTKELENKYFPSKMRGSHHHHHHGS | 0.037
Listeria monocytogenes Sortase A variant D (enzyme) ANYDKDAVVGSIAVPSVDVNLLVFKGTNTANLLAGATTMRSDQVMGKGNYPLAGHHMRDESMLFGPIMKVKKGDKIYLTDLENLYEYTVTETKTIDETEVSVIDDTKDARITLITCDKPTETTKRFVAVGELEKTEKMRGSHHHHHHGS | 0.044
Listeria monocytogenes Sortase A variant B (enzyme) SVIKGAANYDKDAVVGSIAVPSVDVNLLVFKGTNTANLLAGATTMRSDQVMGKGNYPLAGHHMRDESMLFGPIMKVKKGDKIYLTDLENLYEYTVTETKTIDETEVSVIDDTKDARITLITCDKPTETTKRFVAVGELEKTEKLTKELENKYFPSKMRGSHHHHHHGS | 0.026
Listeria monocytogenes Sortase A variant C (enzyme) ANYDKDAVVGSIAVPSVDVNLLVFKGTNTANLLAGATTMRSDQVMGKGNYPLAGHHMRDESMLFGPIMKVKKGDKIYLTDLENLYEYTVTETKTIDETEVSVIDDTKDARITLITCDKPTETTKRFVAVGELEKTEKLTKELENKYFPSKMRGSHHHHHHGS | 0.113
